The source of these data is patent US20240279278A1, “NMU RECEPTOR 2 AGONISTS” (Boehringer Ingelheim International GmbH, priority 2023, published 2024).

The labels stand for the following.
B1: C18DA-gGlu3-Sar15-AEPipAc-Tyr-Phe-NMeLeu-Nle-His-NMeAla-Arg-Gly-NH2 (peptide)
peptide: EEEXXXXXXXXXXXXXXXXYFLXHARG
HELM: PEPTIDE1{[O=C(O)CCCCCCCCCCCCCCCCC(=O)[*:2]].[gGlu].[gGlu].[gGlu].[Sar].[Sar].[Sar].[Sar].[Sar].[Sar].[Sar].[Sar].[Sar].[Sar].[Sar].[Sar].[Sar].[Sar].[Sar].[O=C(CN1CCN(CCN[*:1])CC1)[*:2]].Y.F.[meL].[Nle].H.[meA].R.G.[am]}$$$$V2.0
SMILES: CCCC[C@H](NC(=O)[C@H](CC(C)C)N(C)C(=O)[C@H](Cc1ccccc1)NC(=O)[C@H](Cc1ccc(O)cc1)NC(=O)CN1CCN(CCNC(=O)CN(C)C(=O)CN(C)C(=O)CN(C)C(=O)CN(C)C(=O)CN(C)C(=O)CN(C)C(=O)CN(C)C(=O)CN(C)C(=O)CN(C)C(=O)CN(C)C(=O)CN(C)C(=O)CN(C)C(=O)CN(C)C(=O)CN(C)C(=O)CN(C)C(=O)CC[C@H](NC(=O)CC[C@H](NC(=O)CC[C@H](NC(=O)CCCCCCCCCCCCCCCCC(=O)O)C(=O)O)C(=O)O)C(=O)O)CC1)C(=O)N[C@@H](Cc1c[nH]cn1)C(=O)N(C)[C@@H](C)C(=O)N[C@@H](CCCNC(=N)N)C(=O)NCC(N)=O
B2: C18DA-gGlu3-Sar15-AEPipAc-Tyr-Phe-NMeLeu-Nle-NMeArg-NMeAla-Arg-Gly-NH2 (peptide)
peptide: EEEXXXXXXXXXXXXXXXXYFLXRARG
HELM: PEPTIDE1{[O=C(O)CCCCCCCCCCCCCCCCC(=O)[*:2]].[gGlu].[gGlu].[gGlu].[Sar].[Sar].[Sar].[Sar].[Sar].[Sar].[Sar].[Sar].[Sar].[Sar].[Sar].[Sar].[Sar].[Sar].[Sar].[O=C(CN1CCN(CCN[*:1])CC1)[*:2]].Y.F.[meL].[Nle].[meR].[meA].R.G.[am]}$$$$V2.0
SMILES: CCCC[C@H](NC(=O)[C@H](CC(C)C)N(C)C(=O)[C@H](Cc1ccccc1)NC(=O)[C@H](Cc1ccc(O)cc1)NC(=O)CN1CCN(CCNC(=O)CN(C)C(=O)CN(C)C(=O)CN(C)C(=O)CN(C)C(=O)CN(C)C(=O)CN(C)C(=O)CN(C)C(=O)CN(C)C(=O)CN(C)C(=O)CN(C)C(=O)CN(C)C(=O)CN(C)C(=O)CN(C)C(=O)CN(C)C(=O)CN(C)C(=O)CC[C@H](NC(=O)CC[C@H](NC(=O)CC[C@H](NC(=O)CCCCCCCCCCCCCCCCC(=O)O)C(=O)O)C(=O)O)C(=O)O)CC1)C(=O)N(C)[C@@H](CCCNC(=N)N)C(=O)N(C)[C@@H](C)C(=O)N[C@@H](CCCNC(=N)N)C(=O)NCC(N)=O
B3: C20DA-gGlu3-Sar9-AEPipAc-Tyr-Phe-NMeLeu-Nle-Dbu-Pro-Arg-Gly-NH2 (peptide)
peptide: EEEXXXXXXXXXXYFLXXPRG
HELM: PEPTIDE1{[O=C(O)CCCCCCCCCCCCCCCCCCC(=O)[*:2]].[gGlu].[gGlu].[gGlu].[Sar].[Sar].[Sar].[Sar].[Sar].[Sar].[Sar].[Sar].[Sar].[O=C(CN1CCN(CCN[*:1])CC1)[*:2]].Y.F.[meL].[Nle].[Dab].P.R.G.[am]}$$$$V2.0
SMILES: CCCC[C@H](NC(=O)[C@H](CC(C)C)N(C)C(=O)[C@H](Cc1ccccc1)NC(=O)[C@H](Cc1ccc(O)cc1)NC(=O)CN1CCN(CCNC(=O)CN(C)C(=O)CN(C)C(=O)CN(C)C(=O)CN(C)C(=O)CN(C)C(=O)CN(C)C(=O)CN(C)C(=O)CN(C)C(=O)CN(C)C(=O)CC[C@H](NC(=O)CC[C@H](NC(=O)CC[C@H](NC(=O)CCCCCCCCCCCCCCCCCCC(=O)O)C(=O)O)C(=O)O)C(=O)O)CC1)C(=O)N[C@@H](CCN)C(=O)N1CCC[C@H]1C(=O)N[C@@H](CCCNC(=N)N)C(=O)NCC(N)=O
B4: C18DA-gGlu3-Sar15-AEPipAc-Tyr-Phe-NMeLeu-Nle-4Pal-NMeAla-Arg-Gly-NH2 (peptide)
peptide: {C18 diacid}-[γGlu][γGlu][γGlu][Sar][Sar][Sar][Sar][Sar][Sar][Sar][Sar][Sar][Sar][Sar][Sar][Sar][Sar][Sar][Pipz(1-CH2CO,4-CH2CH2NH)]YF[NMeL][Nle][4Pal][NMeA]RG-NH2
SMILES: CCCC[C@H](NC(=O)[C@H](CC(C)C)N(C)C(=O)[C@H](Cc1ccccc1)NC(=O)[C@H](Cc1ccc(O)cc1)NC(=O)CN1CCN(CCNC(=O)CN(C)C(=O)CN(C)C(=O)CN(C)C(=O)CN(C)C(=O)CN(C)C(=O)CN(C)C(=O)CN(C)C(=O)CN(C)C(=O)CN(C)C(=O)CN(C)C(=O)CN(C)C(=O)CN(C)C(=O)CN(C)C(=O)CN(C)C(=O)CN(C)C(=O)CC[C@H](NC(=O)CC[C@H](NC(=O)CC[C@H](NC(=O)CCCCCCCCCCCCCCCCC(=O)O)C(=O)O)C(=O)O)C(=O)O)CC1)C(=O)N[C@@H](Cc1ccncc1)C(=O)N(C)[C@@H](C)C(=O)N[C@@H](CCCNC(=N)N)C(=O)NCC(N)=O
B5: C18DA-gGlu3-Sar15-AEPipAc-Tyr-Phe-NMeLeu-Nle-3Pal-NMeAla-Arg-Gly-NH2 (peptide)
peptide: {C18 diacid}-[γGlu][γGlu][γGlu][Sar][Sar][Sar][Sar][Sar][Sar][Sar][Sar][Sar][Sar][Sar][Sar][Sar][Sar][Sar][Pipz(1-CH2CO,4-CH2CH2NH)]YF[NMeL][Nle][3Pal][NMeA]RG-NH2
SMILES: CCCC[C@H](NC(=O)[C@H](CC(C)C)N(C)C(=O)[C@H](Cc1ccccc1)NC(=O)[C@H](Cc1ccc(O)cc1)NC(=O)CN1CCN(CCNC(=O)CN(C)C(=O)CN(C)C(=O)CN(C)C(=O)CN(C)C(=O)CN(C)C(=O)CN(C)C(=O)CN(C)C(=O)CN(C)C(=O)CN(C)C(=O)CN(C)C(=O)CN(C)C(=O)CN(C)C(=O)CN(C)C(=O)CN(C)C(=O)CN(C)C(=O)CC[C@H](NC(=O)CC[C@H](NC(=O)CC[C@H](NC(=O)CCCCCCCCCCCCCCCCC(=O)O)C(=O)O)C(=O)O)C(=O)O)CC1)C(=O)N[C@@H](Cc1cccnc1)C(=O)N(C)[C@@H](C)C(=O)N[C@@H](CCCNC(=N)N)C(=O)NCC(N)=O
B6: C18DA-gGlu3-Sar15-AEPipAc-Tyr-Phe-NMeLeu-Nle-NMeArg-Pro-Arg-Gly-NH2 (peptide)
peptide: EEEXXXXXXXXXXXXXXXXYFLXRPRG
HELM: PEPTIDE1{[O=C(O)CCCCCCCCCCCCCCCCC(=O)[*:2]].[gGlu].[gGlu].[gGlu].[Sar].[Sar].[Sar].[Sar].[Sar].[Sar].[Sar].[Sar].[Sar].[Sar].[Sar].[Sar].[Sar].[Sar].[Sar].[O=C(CN1CCN(CCN[*:1])CC1)[*:2]].Y.F.[meL].[Nle].[meR].P.R.G.[am]}$$$$V2.0
SMILES: CCCC[C@H](NC(=O)[C@H](CC(C)C)N(C)C(=O)[C@H](Cc1ccccc1)NC(=O)[C@H](Cc1ccc(O)cc1)NC(=O)CN1CCN(CCNC(=O)CN(C)C(=O)CN(C)C(=O)CN(C)C(=O)CN(C)C(=O)CN(C)C(=O)CN(C)C(=O)CN(C)C(=O)CN(C)C(=O)CN(C)C(=O)CN(C)C(=O)CN(C)C(=O)CN(C)C(=O)CN(C)C(=O)CN(C)C(=O)CN(C)C(=O)CC[C@H](NC(=O)CC[C@H](NC(=O)CC[C@H](NC(=O)CCCCCCCCCCCCCCCCC(=O)O)C(=O)O)C(=O)O)C(=O)O)CC1)C(=O)N(C)[C@@H](CCCNC(=N)N)C(=O)N1CCC[C@H]1C(=O)N[C@@H](CCCNC(=N)N)C(=O)NCC(N)=O
B7: C18DA-gGlu3-Sar15-AEPipAc-Tyr-Phe-NMeLeu-Nle-3Pal-Pro-Arg-Gly-NH2 (peptide)
peptide: {C18 diacid}-[γGlu][γGlu][γGlu][Sar][Sar][Sar][Sar][Sar][Sar][Sar][Sar][Sar][Sar][Sar][Sar][Sar][Sar][Sar][Pipz(1-CH2CO,4-CH2CH2NH)]YF[NMeL][Nle][3Pal]PRG-NH2
SMILES: CCCC[C@H](NC(=O)[C@H](CC(C)C)N(C)C(=O)[C@H](Cc1ccccc1)NC(=O)[C@H](Cc1ccc(O)cc1)NC(=O)CN1CCN(CCNC(=O)CN(C)C(=O)CN(C)C(=O)CN(C)C(=O)CN(C)C(=O)CN(C)C(=O)CN(C)C(=O)CN(C)C(=O)CN(C)C(=O)CN(C)C(=O)CN(C)C(=O)CN(C)C(=O)CN(C)C(=O)CN(C)C(=O)CN(C)C(=O)CN(C)C(=O)CC[C@H](NC(=O)CC[C@H](NC(=O)CC[C@H](NC(=O)CCCCCCCCCCCCCCCCC(=O)O)C(=O)O)C(=O)O)C(=O)O)CC1)C(=O)N[C@@H](Cc1cccnc1)C(=O)N1CCC[C@H]1C(=O)N[C@@H](CCCNC(=N)N)C(=O)NCC(N)=O
B8: C18DA-gGlu3-Sar15-AEPipAc-Tyr-Phe-NMeLeu-Nle-2Pal-Pro-Arg-Gly-NH2 (peptide)
peptide: {C18 diacid}-[γGlu][γGlu][γGlu][Sar][Sar][Sar][Sar][Sar][Sar][Sar][Sar][Sar][Sar][Sar][Sar][Sar][Sar][Sar][Pipz(1-CH2CO,4-CH2CH2NH)]YF[NMeL][Nle][2Pal]PRG-NH2
SMILES: CCCC[C@H](NC(=O)[C@H](CC(C)C)N(C)C(=O)[C@H](Cc1ccccc1)NC(=O)[C@H](Cc1ccc(O)cc1)NC(=O)CN1CCN(CCNC(=O)CN(C)C(=O)CN(C)C(=O)CN(C)C(=O)CN(C)C(=O)CN(C)C(=O)CN(C)C(=O)CN(C)C(=O)CN(C)C(=O)CN(C)C(=O)CN(C)C(=O)CN(C)C(=O)CN(C)C(=O)CN(C)C(=O)CN(C)C(=O)CN(C)C(=O)CC[C@H](NC(=O)CC[C@H](NC(=O)CC[C@H](NC(=O)CCCCCCCCCCCCCCCCC(=O)O)C(=O)O)C(=O)O)C(=O)O)CC1)C(=O)N[C@@H](Cc1ccccn1)C(=O)N1CCC[C@H]1C(=O)N[C@@H](CCCNC(=N)N)C(=O)NCC(N)=O
B9: C20DA-gGlu3-Sar12-AEPipAc-Tyr-Phe-NMeLeu-Nle-Dbu-NMeAla-Arg-Gly-NH2 (peptide)
peptide: EEEXXXXXXXXXXXXXYFLXXARG
HELM: PEPTIDE1{[O=C(O)CCCCCCCCCCCCCCCCCCC(=O)[*:2]].[gGlu].[gGlu].[gGlu].[Sar].[Sar].[Sar].[Sar].[Sar].[Sar].[Sar].[Sar].[Sar].[Sar].[Sar].[Sar].[O=C(CN1CCN(CCN[*:1])CC1)[*:2]].Y.F.[meL].[Nle].[Dab].[meA].R.G.[am]}$$$$V2.0
SMILES: CCCC[C@H](NC(=O)[C@H](CC(C)C)N(C)C(=O)[C@H](Cc1ccccc1)NC(=O)[C@H](Cc1ccc(O)cc1)NC(=O)CN1CCN(CCNC(=O)CN(C)C(=O)CN(C)C(=O)CN(C)C(=O)CN(C)C(=O)CN(C)C(=O)CN(C)C(=O)CN(C)C(=O)CN(C)C(=O)CN(C)C(=O)CN(C)C(=O)CN(C)C(=O)CN(C)C(=O)CC[C@H](NC(=O)CC[C@H](NC(=O)CC[C@H](NC(=O)CCCCCCCCCCCCCCCCCCC(=O)O)C(=O)O)C(=O)O)C(=O)O)CC1)C(=O)N[C@@H](CCN)C(=O)N(C)[C@@H](C)C(=O)N[C@@H](CCCNC(=N)N)C(=O)NCC(N)=O

Starred links: 1 amine or outer side, 2 acyl side, 3 side chain; linkers in the order of their positions; H or OH if unused. Non-standard residues stand in square brackets, D forms with d. *: point of attachment. Pipz(1-CH2CO,4-CH2CH2NH) = O=C(CN1CCN(CCN[*:1])CC1)[*:2]; C18 diacid = O=C(O)CCCCCCCCCCCCCCCCC(=O)*; γGlu = O=C(O)[C@H](CCC(=O)[*:2])N[*:1]; 2Pal = N[C@@H](Cc1ccccn1)C(=O)O; 3Pal = N[C@@H](Cc1cccnc1)C(=O)O; 4Pal = N[C@@H](Cc1ccncc1)C(=O)O; NMeL = CN[C@@H](CC(C)C)C(=O)O; NMeA = CN[C@@H](C)C(=O)O; Nle = CCCC[C@H](N)C(=O)O; Sar = CNCC(=O)O Where only a bound is given, the exact number is not on record here.

The assay concerns the target T1, human neuromedin U receptor 1 (human, UniProt Q9HB89 24-426).
T1 sequence (looked up): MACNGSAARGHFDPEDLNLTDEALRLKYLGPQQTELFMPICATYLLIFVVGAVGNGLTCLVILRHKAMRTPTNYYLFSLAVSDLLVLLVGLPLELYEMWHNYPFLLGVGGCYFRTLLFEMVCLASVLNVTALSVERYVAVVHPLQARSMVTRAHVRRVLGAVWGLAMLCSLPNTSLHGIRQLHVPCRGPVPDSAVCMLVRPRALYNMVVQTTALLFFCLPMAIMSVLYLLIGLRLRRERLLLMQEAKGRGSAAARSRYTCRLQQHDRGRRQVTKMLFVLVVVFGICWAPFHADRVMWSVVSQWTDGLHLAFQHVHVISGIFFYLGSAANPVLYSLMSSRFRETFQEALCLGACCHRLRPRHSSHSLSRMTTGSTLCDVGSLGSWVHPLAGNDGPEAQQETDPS
The assay can be described thus: cell-based or functional assay.
As to B1, the “EC50 (hNMUR1) buffer” value is above 1 µM.
As for B2, the “EC50 (hNMUR1) buffer” value came out at 1.3 µM.
To B3 belongs 0.54 µM.
Under B4 stands above 1 µM.
To B5 belongs above 1 µM; to B6, 0.2 µM; to B7, above 1 µM.
As for B8, the “EC50 (hNMUR1) buffer” value is above 1 µM.
Under B9 stands above 1 µM.
